From patent US20240287172A1 (SCIRHOM, published 2024)

B1: antibody 42 (antibody, V domains shown)
VH: QVTLKESGPGILQPSQTLSLTCSLSGFSLSTFGRGVGWIRQPSGKGLEWLAHIWWDDEKYYNPALKSRLTISKDTSKNQVFLRIANVDTADTATYYCARIQNYGSNYWYFDVWGTGTTVTVSS
VL: LIVLTQSPAIMSASPGEKVTMTCGATSRISYMFWYQQKPGSSPRVLIYDTSNLASGVPVRFSGSGSGTSYSLTISRVEAEDVATYYCQQWNSYPLTFGAGTKLELK
notes: mouse IgG, kappa light chain; also called clone #42; purified antibody 42
B2: antibody 44 (antibody, V domains shown)
VH: QVTLKESGPGILQPSQTLSLTCSFSGFSLSTFGMGVGWIRQPSEKGLEWLAHIWWDDDKYYNPALKSRLTISKDTSKNQIFLKITNVDTAETATYYCSRIGNYGSNYWYFDVWGTGTTVTVSS
VL: QIVLTQSPAVMSASPGEKVTMTCTASSSVYYMYWYQQTPGSSPRLLIYDTSNLASGVPVRFSGSGSGTSYSLTISRMEAEDAATYYCQQWNTYPLTFGAGTKLELK
notes: mouse IgG, kappa light chain; also called clone #44; purified antibody 44
B3: antibody 43 (antibody, V domains shown)
VH: QVALKESGPGILQPSQTLSLTCSFSGFSLSTFGMGVGWIRQSSGKGLEWLANIWWDDDKYYNPALKSRLTISKDASKNQAFLKIANVDTADTATYYCARIGNYGSNYWYFDVWGTGTTVTVSS
VL: QIVLTQSPAIMSASPGERVTMTCSANSRISYMYWYQQKPGSSPRLLIYDTSNLASGVPVRFSGSGSGTSYSLTISRMEAEDAATYNCQQWSSYPLTFGAGTKLELK
notes: mouse IgG, kappa light chain; also called clone #43; purified antibody 43
B4: antibody 3 (antibody, V domains shown)
VH: QVTLKESGPGILQPSQTLSLTCSFSGFSLTTFAMGIGWVRQPSGKGLEWLAHIWWDGEKYNNPVLKSRLTISKDTSKNQVFLRIANVDTPDTATYYCARISSIYYIIDNWGQGTSVTVSS
VL: DIVLTQSPATLSVTPGHSVSLSCRASQSISNNLHWYQKKSHESPRLLIKYVSQSISGIPSRFSGSGSGTDFTLSINSVETEDFGMYFCQQSYNWPLTFGAGTKLELK
notes: mouse IgG, kappa light chain; also called clone #3; purified antibody 3
B5: antibody 34 (antibody, V domains shown)
VH: QVTLKESGPGILQPSQTLSLTCSFSGFSLSTFSLGVGWIRQSSGKGLEWLAHIWWDDEKYYNPALKSRLTISKDTSKNQVFLKIANVDAADTATYYCARAYYSKSYYALDYWGQGTSVTVSS
VL: DIQMTQSPSSLSASLGERVSLTCRASQEISGYLSWLQQKPDGTIKRLIYAASTLDSGVPKRFSGSRSGSDYSLAISSLESEDFADYYCLQYANFPFTFGSGTKLEIK
notes: mouse IgG, kappa light chain; also called clone #34; purified antibody 34

What was measured:
[1] = biological target: T1, human iRhom2, endogenously expressed (human, UniProt Q6PJF5 1-856); experiment: cell-based or functional assay
T1 sequence: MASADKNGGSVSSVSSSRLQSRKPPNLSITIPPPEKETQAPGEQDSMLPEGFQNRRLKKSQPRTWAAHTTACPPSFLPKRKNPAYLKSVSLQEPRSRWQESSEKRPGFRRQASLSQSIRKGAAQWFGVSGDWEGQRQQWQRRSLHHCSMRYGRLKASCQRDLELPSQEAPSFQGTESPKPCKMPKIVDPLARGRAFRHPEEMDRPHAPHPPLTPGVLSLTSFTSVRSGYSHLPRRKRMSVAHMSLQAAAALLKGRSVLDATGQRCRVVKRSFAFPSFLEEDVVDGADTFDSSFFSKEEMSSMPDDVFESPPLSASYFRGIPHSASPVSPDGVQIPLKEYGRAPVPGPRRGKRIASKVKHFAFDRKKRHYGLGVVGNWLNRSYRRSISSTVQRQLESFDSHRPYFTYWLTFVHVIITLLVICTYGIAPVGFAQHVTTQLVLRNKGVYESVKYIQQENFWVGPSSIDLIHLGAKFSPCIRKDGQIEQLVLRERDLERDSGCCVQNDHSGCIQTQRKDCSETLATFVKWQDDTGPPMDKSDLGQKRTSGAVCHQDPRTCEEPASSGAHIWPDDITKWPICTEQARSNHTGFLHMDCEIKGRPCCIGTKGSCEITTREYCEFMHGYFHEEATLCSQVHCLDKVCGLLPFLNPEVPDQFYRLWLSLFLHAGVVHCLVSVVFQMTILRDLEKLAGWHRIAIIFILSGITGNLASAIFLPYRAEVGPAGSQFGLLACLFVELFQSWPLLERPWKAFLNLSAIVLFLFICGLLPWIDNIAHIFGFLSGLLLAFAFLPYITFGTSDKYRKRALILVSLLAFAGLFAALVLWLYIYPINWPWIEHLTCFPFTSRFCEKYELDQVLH

[2] = biological target: T1, human iRhom2, endogenously expressed; experiment: indirect FACS scatchard analysis on THP-1 cells
Procedure: In brief, human THP-1 cells (American Type Culture Collection, USA) were harvested with 10 mM EDTA in PBS, washed and resuspended in FACS buffer (PBS, 3% FBS, 0.05% sodium azide), and seeded in Nunc U-bottom 96-well plates (Thermo Fisher Scientific, USA) at approximately 3×10⁵ cells per well. In order to pellet cells and remove supernatants, the plates were centrifuged at 1,500 rpm and 4° C. for 3 minutes. For primary staining, cells were resuspended in 100 μl per well of either FACS buffer alone (controls) or serial two-fold dilutions (in total 22 concentrations) of the purified antibodies 3, 5, 16, 22, 34, 42, 43, 44, 48, and 50 of the invention in FACS buffer starting at 40 μg/ml and incubated on ice for 1 hour. Afterwards, plates were centrifuged at 1,500 rpm and 4° C. for 3 minutes and washed twice with 200 μl per well of FACS buffer. For secondary staining, cells were spun down and resuspended in 100 μl per well of PE-conjugated goat anti-mouse IgG F(ab′)2 detection fragment (Dianova, Germany) diluted 1:100 in FACS buffer. Protected from light, the cell suspensions were incubated on ice for 1 hour. Plates were then centrifuged at 1,500 rpm and 4° C. for 3 minutes and washed three times with 200 μl per well of FACS buffer. Finally, cells were resuspended in 150 μl per well of FACS buffer and analyzed using a BD Accuri™ C6 Plus flow cytometer (Becton Dickinson, Germany). Applying Prism8 software (GraphPad Sowtware, USA), the respective KD value for each of the antibodies of the invention were calculated.

Row | Binder | LPS-induced TNFα release from PBMCs of healthy donors, percent inhibition, 1 µg/ml [1] [%] | LPS-induced TNFα release from THP-1 cells, percent inhibition, 10 µg/ml, hybridoma-purified [1] [%] | LPS-induced TNFα release from THP-1 cells, percent inhibition, recombinant antibody [1] [%] | LPS-induced TNFα release from human macrophages of healthy donors, percent inhibition, 10 µg/ml [1] [%] | PMA-induced HB-EGF release from PBMCs of healthy donors, percent inhibition, 1 µg/ml [1] [%] | PMA-induced HB-EGF release from THP-1 cells, percent inhibition, 3 µg/ml [1] [%] | PMA-induced HB-EGF release from U-937 cells, percent inhibition [1] [%] | PMA-induced IL-6R release from PBMCs of healthy donors, percent inhibition, 1 µg/ml [1] [%] | PMA-induced IL-6R release from THP-1 cells, percent inhibition, 1 µg/ml [1] [%] | PMA-induced IL-6R release from U-937 cells, percent inhibition, 1 µg/ml [1] [%] | PMA-induced IL-6R release from U-937 cells, percent inhibition, 3 µg/ml [1] [%] | PMA-induced TGFα release from PC3 cells, percent inhibition, 1 µg/ml [1] [%] | PMA-induced TNFα release from U-937 cells, percent inhibition, 1 µg/ml [1] [%] | PMA-induced TNFα release from U-937 cells, percent inhibition, 3 µg/ml [1] [%] | Kd [2] [nM]
1 | B1 | 77 | 76.7 | 75.9 | 93.2 | 77.6 | 76.6 | 104 | 85 | 85.9 | 80.8 | 84.4 | 14.3 | 94.5 | 94.1 | 1.9
2 | B2 |  | 32.2 | 73.2 |  |  | 67.5 | 100 |  | 73 | 71.8 | 82 | 14.1 | 76.5 | 86.3 | 0.44
3 | B3 |  | 74.8 | 78.5 |  |  |  |  |  | 72.9 | 76.1 |  | 12.4 | 78.3 |  | 4.55
4 | B4 |  | 71.2 | 59.9 |  |  |  |  |  | 46.7 | 61.8 |  |  | 65.9 |  | 2.97
5 | B5 |  | 27.3 | 73.8 |  |  | 64.2 | 98.2 |  | 71.1 | 69.3 | 74.6 |  | 68.6 | 79.9 | 1.94
